assay: yeast display, Sf9 membrane polyspecificity reagent, FACS + sequencing; frameworks hold sequencing errors
Summary of the method: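 Sorting gates, low and high (top ~1%), were placed on anti-HA fluorescence to track expression and on streptavidin fluorescence to track reagent binding. A clone's polyreactivity label is taken from the gate it came out of. The reagent was 10% biotinylated, detergent-solubilized Sf9 membrane, applied for 1 hour at 4 °C to galactose-induced yeast display cells.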

Sequence | polyreactivity (PSR sort gate)
QVQLVESGGGLVQAGGSLRLSCAASGFIFDIYAMGGYRPAPGKERELVAAISSGGSTNYADSVKGRFTISRDNAKNTVYLQMNSLKPEDTAVYYCAADRSDLAEEGYAGYDYWGQGTQVTVSS | low polyreactivity
QVQLVESGGGLVQAGGSLRLSCAASGFIFDKYAMGWYRQAPGKERELVATITSGGSTYYADSVKGRFTISRDNAKNTVYLQMNSLKPEDTAVYYCAALDYGYRWYRYYYWGQGTQVTVSS | high polyreactivity
QVQLVESGGGLVQAGGSLRLSCAASGFIFDKYVMGWYRQAPGKERELVAAISSGGSTYYADSVKGRFTISRDNAKNTVYLQMNSLKPEDTAVYYCNAGGFWPWVYGYDSWGQGTQVTVSS | high polyreactivity
QVQLVESGGGLVQAGGSLRLSCAASGFIFDRNTMGWYRQAPGKERELVAAISRSGGSTYYADSVKGRFTISRDNAKNTVYLQMNSLKPEDTAVYYCAALYYYRNRSYDYWGQGTQVTVSS | high polyreactivity
QVQLVESGGGLVQAGGSLRLSCAASGFIFDRYAMGWYRQAPGKERELVAAIDTASSTNYADSVKGRFTISRDNAKNTVYLQMNSLKPEDTGVYYCNASGYYYVIYWKVSNYNYWGQGTQVTVSS | low polyreactivity
QVQLVESGGGLVQAGGSLRLSCAASGFIFDSNVMGWYRQAPGKERELVATITNRGGRTYYADSVKGRFTISRDNAKNTVYLQMNSLKPEDTAVYYCNRRWIWTRDRGGYWGQGTQVTVSS | low polyreactivity
QVQLVESGGGLVQAGGSLRLSCAASGFIFDTYAMGWYRQAPGKERELVAAISYRGGSTYYADSVKGRFTISRDNAKNTVYLQMNSLKPEDTAVYYCNAYWRYSYFGRDYWGQGTQVTVSS | low polyreactivity
QVQLVESGGGLVQAGGSLRLSCAASGFIFDVNAMGWYRQAPGKERELVAAISRSGSSTYYADSVKGRFTISRDNAKNTVYFQMNSLKPEDTAVYYCAAEYYRNFYCSRGYWGQGTQVTVSS | high polyreactivity
QVQLVESGGGLVQAGGSLRLSCAASGFIFDYNVMGWYSQAPGKKGSWVAAISWSGGSTYYADSVKGRFTISRDNAKNTVYLEINSLKPEDTAVYYCSSRGTSTFRGTGRYDYWGQGTQVTVSS | high polyreactivity
QVQLVESGGGLVQAGGSLRLSCAASGFIFDYSAMGWYRQAPGKERELVAAISHSGGTTYYADSVKGRFTISRDKAKNTVYLQMNSLKPEDTAVYYCNALYRKDFNSEYDYWGPGTQVTVSS | high polyreactivity
QVQLVESGGGLVQAGGSLRLSCAASGFIFDYYGMGWYRQAPGKERELVAAITRGGSTYYADSVKGRFTISRDNAKNTVYLQMNSLKPEDTAFYYCAAKYVSQGYDYWGQGTQVTVSS | high polyreactivity
QVQLVESGGGLVQAGGSLRLSCAASGFIFEAYTMGWSRQAPGKERELVASIDWDGGSTYYADSVKGRFTISRDNAKNTVYLQMNSLKPEDTAVYYCAADSRQYDELGDYDYWGQGTQVTVSS | low polyreactivity
QVQLVESGGGLVQAGGSLRLSCAASGFIFENNAKGWYRQAPGKERELVAGITSGGGSTYYADSVKGRFTISRDNAKNTVYLQMNSLKPEDTAVYYFNKLYTRVGFTFEYWGQGTQVNVSS | low polyreactivity
QVQLVESGGGLVQAGGSLRLSCAASGFIFERYAMGWYRKAPGKERELVAGIYSGGSTYYADSVKGRFTISRDNAKNTVYLQMNSLKPEDTAVYYCAAFRRQHIIYNYWGQGTQVTVSS | high polyreactivity
QVQLVESGGGLVQAGGSLRLSCAASGFIFESNAMGWYRQAPGKERELVAAISKRGGSTYYADSVKGRFTISRDNAKNTVYLQMNSLKPEDTAVYYCNKARGYYHPGYQYGLDYWGQGTQVTVSS | high polyreactivity
QVQLVESGGGLVQAGGSLRLSCAASGFIFEYNTMGWYRQAPGKERELVAAISRRGGSTYYADSVKGRFTISRDNAKNTVYLQMKSLKPEDTAVYYCATDPGARVHYPTGDYWGQGTQVTVSS | high polyreactivity
QVQLVESGGGLVQAGGSLRLSCAASGFIFFDNAMGWYRHAPGKETELVAVISSSGTSTYYADSVKGRFTISRDNAKNTVYLQMNSLKPEDTAVYYCNATARTGVYLESDYWGQGTQVTVSS | low polyreactivity
QVQLVESGGGLVQAGGSLRLSCAASGFIFFKYAMRWYRQAPGKEREFVAAISKSGTSTYYADSVKGRFTISRDNAKNTVYLQMNSLKPEDTAVYYCAARKDSYYYRSYDSWGQGTQVTVSS | high polyreactivity
QVQLVESGGGLVQAGGSLRLSCAASGFIFFQYAMGWYRPAPGKERELVAAISGSGVTTYYADSVKGRFTISRDNAKNTVYLQMNSLKPDDTAVYYCNAGSVSDRQMDYWGQGTQVTVSS | low polyreactivity
QVQLVESGGGLVQAGGSLRLSCAASGFIFFQYAMGWYRQAPGKERELVAAITARSGSTYYADSVKGRFTISRDNAKNTVYLQMNSLKPEDTAVYYCAARPRYYRWGPLDYWGQGTQVTVSS | high polyreactivity
QVQLVESGGGLVQAGGSLRLSCAASGFIFFRYDMGWYRQAPGKERELVAVITSSGSTNYADSVKGRFTISRDNAKNTVYLQMNSLKPEDTAVYYCNARVSGVYRRRVNYWGEGTQVTVSS | high polyreactivity
QVQLVESGGGLVQAGGSLRLSCAASGFIFFVNAMGWYRQAPGKEREFVATITGSGGSTYYADSVKGRFTISRDNAKNTVYLQMNSLKPEDTAVYYCAALGPYLDYGVQYGYWGQGTQVTVSS | low polyreactivity

Sequence | polyreactivity (PSR sort gate)
QVQLVESGGGLVQAGGSLRLSCAASGFIFFYAMGWYRQAPGKERELVASIDSGVSTDYADSVKGRFTISRDNAKNTDYLQMNSLKTEDTAVYYCAADYRAPLEYWGQGTQVTVSS | low polyreactivity
QVQLVESGGGLVQAGGSLRLSCAASGFIFFYNAMGWYRQAPGKERELVADISSGGRTYYADSVKGRFTISRDNAKNTVYLQMNSLKPEDTAVYYCAAQSRYWVVRMDYWGQGTQVTVSS | high polyreactivity
QVQLVESGGGLVQAGGSLRLSCAASGFIFGAYAMGWYRQAPGKERELVAAISRRGGSTYYADSVKGRFTISRDNAKNTVYLQMNSLKPEDTAVYYCAADISGSYYRPQYDYWGQGTQVTVSS | low polyreactivity
QVQLVESGGGLVQAGGSLRLSCAASGFIFGAYAMGWYRQAPGKERELVAAITKSGGRTYYADSVKGRFTISRDNAKNTVYLQMNSLKPEDTAVYYCAAVTRYPGEYDYWGQGTQVTVSS | high polyreactivity
QVQLVESGGGLVQAGGSLRLSCAASGFIFGDYAMGWYRQAPGKERELVAAINYSGGSTYYADSVKGRFTISRDNAKNTVYLQMNSLKPEDTAVYYCAALIYGLVGWGQGTQVTVSS | low polyreactivity
QVQLVESGGGLVQAGGSLRLSCAASGFIFGGNAMGWYRQAPGKERELVAAVSWIAGSTHYADSVKGRFTISRDNAKNTVYLQMNSLKPEDTAVYYCAADHEGSLSRGFTETDYDYWGQGTQVTVSS | low polyreactivity
QVQLVESGGGLVQAGGSLRLSCAASGFIFGGNTMGWSRQAPGKERELVASITLSGGRTHYADSVKGRFTISRDNAKNTVYLQMNSLKPEDTAVYYCARSLASYLHAGDTEYNGSYWGQGTQVTVSS | low polyreactivity
QVQLVESGGGLVQAGGSLRLSCAASGFIFGGYAMGWYRQAHGKEREWVAAISRSGGSTYYADSVKGRFTISRDNAKNTVYLQMNSLKPEDTAVYYCNAVPRRQGFNYWGQGTQVTVSS | high polyreactivity
QVQLVESGGGLVQAGGSLRLSCAASGFIFGGYAMGWYRQAPGKERELVAAISRSGGSTYYADSVKGRFTISRDNEKNTVYLQMNSVKPEDTAVYYCNAVPRRQGFNYWGQCTQVTVSS | high polyreactivity
QVQLVESGGGLVQAGGSLRLSCAASGFIFGGYAMGWYRQAPGKERELVAAITGGGTTYYADSVKGRFTISRDNAKNTVYLQMNSLKPEDTAVYYCAAAYRLGYHKYYYWGQGTQVTVSS | high polyreactivity
QVQLVESGGGLVQAGGSLRLSCAASGFIFGGYAMGWYRQAPGKERELVARITRSGGSTYYADSVKGRFTISRDNAKNTVYLQMNSLKPEDTAVYYCNARYGKPAYQYGMDYWGQGTQVTVSS | low polyreactivity
QVQLVESGGGLVQAGGSLRLSCAASGFIFGHNAMGWYRQAPGKERELVASISKSGGDTYYADSVKGRFTISRDNAKNTVYLQMNSLKPEDTAVYYCAAQGAVFEILDYWGQGTQVTVSS | low polyreactivity
QVQLVESGGGLVQAGGSLRLSCAASGFIFGHYAMGWYRQAPGKERELVATISSGGSTKYADSVKGRFTISRDNAKNTVYLQMNSLKPEDTAVYYCAKKLWYLYHHYDYWGQGTQVTVSS | low polyreactivity
QVQLVESGGGLVQAGGSLRLSCAASGFIFGINAMGWYRQAPGKEREFVATITSGGGTNYADSVKGLFTISRDNAKNTVYLQMHSLKPEDTAVYYGAAEEDYIYFYVSMDYWGQGTQVTVSS | low polyreactivity
QVQLVESGGGLVQAGGSLRLSCAASGFIFGIYAMGWYRQAPGNEWEFVAAITGSAGSTYYADSVKGRFTISRDNAKNTVYLQMNSLKPEDTAVYYCATDVLPRKYDSDYPSGAYDYWGQGTQVTVSS | low polyreactivity
QVQLVESGGGLVQAGGSLRLSCAASGFIFGKNAMGWYRQAPGKERELVAVISWRGSSTYYADSVKGRFTISRDNAKNTVYLQMNSLKPEDTAVYYCAARYPARGTLYYWGQGTQVTVSS | low polyreactivity
QVQLVESGGGLVQAGGSLRLSCAASGFIFGKYAMGWYRQAPGKERELVAAISRSSRTFYADSVKGRFTISRDNAKNTVYLQMNSRKPEDTAVYYCAVKKRAPDGDYWGQGTQVTVSS | high polyreactivity
QVQLVESGGGLVQAGGSLRLSCAASGFIFGLNAMGWYRPAPGKERELVAAIRSASSTNYADSVKGRFTISRDNAKNTVYLQMNSLKPEDTAVYYCAAEYVTYQQGFWGYDYWGQGTQVTVSS | low polyreactivity
QVQLVESGGGLVQAGGSLRLSCAASGFIFGNYAMGWYRPAPGKERELVATITRRGGRTYYADSVKGRFTISRDNAKNTVYLQMNSLKPEDTAVYYCNAGAYYLLSGQDDMDYWGQGTQVTVSS | high polyreactivity
QVQLVESGGGLVQAGGSLRLSCAASGFIFGPYAMGWYRQAPGKERELVAASWRGGSTYYADSVKGRFTISRDNAKNTVYLQMNSLKPEDTAVYYCAADVFYSLYYYWGQGTQVTVSS | low polyreactivity
QVQLVESGGGLVQAGGSLRLSCAASGFIFGQYAMGWYRQAPGKERELVAAISWSGGRTNYADSVKGRFTISRDNAKNTVYLQMNSLKPEDTAVYYCAARKGKYPQYPYGYWGQGTQVTVSA | high polyreactivity

From the nanobody polyreactivity screen of Harvey et al. (2022)
